Results from patent publication US8900593B2 (Indiana University Research and Technology Corporation, priority 2007, dated 2014).
Like-named read-outs stand apart in the source and are kept apart here. Where a SMILES comes first, the peptide text is derived from it. Bridges are numbered along the chain shown (N, C = ends). Where no end group is shown, it is not given here. [ ]: non-standard residue; d: D form. The star is where a group is joined. Isobutyryl(2-imidazol-4-yl) = CC(C)(C(=O)*)c1c[nH]cn1; PEG = not defined here; Aib = CC(C)(N)C(=O)O

Tests used:
GLP-1 receptor = target: T1, GLP-1 receptor (Homo sapiens, UniProt P43220); assay: Functional assay-cAMP synthesis, luciferase reporter in HEK293 cells co-transfected with GLP-1 receptor; assay type: cell-based; settings: for Percent Potency Relative to Native Ligand GLP-1Rec: relative to native GLP-1; for GLP 1 Receptor Relative Potency (%): Table 11, relative to GLP-1-VKGG30 (SEQ ID NO: 527) = 100
T1 construct: expressed in transfected cells; host or cells: HEK293
T1 sequence (P43220 24-463, species assumed): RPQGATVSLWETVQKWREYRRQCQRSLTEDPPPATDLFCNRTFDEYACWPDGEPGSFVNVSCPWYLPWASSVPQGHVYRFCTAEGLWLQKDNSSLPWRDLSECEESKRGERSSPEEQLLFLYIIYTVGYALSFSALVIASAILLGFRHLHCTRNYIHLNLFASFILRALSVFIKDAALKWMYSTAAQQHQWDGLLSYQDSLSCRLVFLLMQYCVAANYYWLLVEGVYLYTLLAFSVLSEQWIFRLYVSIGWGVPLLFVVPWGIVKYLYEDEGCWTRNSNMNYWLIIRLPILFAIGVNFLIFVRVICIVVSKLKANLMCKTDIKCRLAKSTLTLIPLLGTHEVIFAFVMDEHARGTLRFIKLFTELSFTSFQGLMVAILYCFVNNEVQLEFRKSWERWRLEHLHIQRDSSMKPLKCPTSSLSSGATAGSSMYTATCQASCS

glucagon receptor = target: T2, glucagon receptor (Homo sapiens, UniProt P47871); assay: Functional assay-cAMP synthesis, luciferase reporter in HEK293 cells co-transfected with glucagon receptor; assay type: cell-based; settings: for Parent w/PEG % Potency Relative to Native GR / Parent w/o PEG % Potency Relative to Native GR: Table 12; for Parent w/PEG % Potency Relative to Native GR: pegylated peptide; for Parent w/o PEG % Potency Relative to Native GR: peptide without PEG; for Percent Potency Relative to Native Ligand GRec: relative to native glucagon; for Glucagon Receptor Relative Potency (%): Table 11, relative to glucagon (SEQ ID NO: 1) = 100
T2 construct: expressed in transfected cells; host or cells: HEK293
T2 sequence (P47871 26-477): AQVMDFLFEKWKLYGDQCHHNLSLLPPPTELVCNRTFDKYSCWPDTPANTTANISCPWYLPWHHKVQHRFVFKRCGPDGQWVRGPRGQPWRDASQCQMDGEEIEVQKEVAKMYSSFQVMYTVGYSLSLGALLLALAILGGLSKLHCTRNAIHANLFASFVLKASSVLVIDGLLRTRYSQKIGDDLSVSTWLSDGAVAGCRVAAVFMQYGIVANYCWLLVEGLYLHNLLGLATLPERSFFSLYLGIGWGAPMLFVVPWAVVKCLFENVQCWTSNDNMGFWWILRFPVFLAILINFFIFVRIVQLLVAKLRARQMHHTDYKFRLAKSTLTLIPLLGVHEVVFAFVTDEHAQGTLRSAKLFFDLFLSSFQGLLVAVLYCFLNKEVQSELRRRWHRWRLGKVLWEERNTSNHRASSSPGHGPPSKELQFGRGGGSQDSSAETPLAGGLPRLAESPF

[1] = Glucagon Receptor EC50(nM), Table 10, GLP-1 17-26 glucagon analogs
[2] = read-out: cAMP Induction Glucagon Receptor EC50, Table 3, pegylated glucagon analogs

HSQGTFTSDYSKYLDEQAAKEFIAWLVKG-NH2 [E16 GLP(17-29)-NH2, HSQGTFTSDYSKYLDEQAAKEFIAW LVKGa]
EC50 (GLP-1 receptor): 0.01 nM
EC50 (glucagon receptor; [1]): 0.46 nM

Glucagon Cys^17 Mal-PEG-5K [Glucagon C17 PEG 5K]
EC50 (glucagon receptor; [2]): 0.82 ± 0.15 nM

HSQGTFTSDYSKYLDEQAAKEFIEWLVKG-NH2 [E16 GLP(17-29)-NH2 E24, K28]
EC50 (GLP-1 receptor): 0.007 nM
EC50 (glucagon receptor; [1]): 0.23 nM

X1SQGT FTSDYSKYLD EQAAK EFIC*W LMNTa [Chimera DMIA1, Cys24 (SEQ ID NO: 519)]
Parent w/PEG % Potency Relative to Native GLP-1R (GLP-1 receptor; Table 12, pegylated peptide): 19.3%
Parent w/o PEG % Potency Relative to Native GLP-1R (GLP-1 receptor; Table 12, peptide without PEG): 64.5%
Parent w/PEG % Potency Relative to Native GR (glucagon receptor): 6.9%
Parent w/o PEG % Potency Relative to Native GR (glucagon receptor): 28.9%

CC[C@H](C)[C@H](NC(=O)[C@H](Cc1ccccc1)NC(=O)[C@H](CCC(=O)O)NC(=O)[C@H](CCCCN)NC(=O)[C@H](C)NC(=O)[C@H](C)NC(=O)[C@H](CCC(N)=O)NC(=O)[C@H](CCC(=O)O)NC(=O)[C@H](CC(=O)O)NC(=O)[C@H](CC(C)C)NC(=O)[C@H](Cc1ccc(O)cc1)NC(=O)[C@H](CCCCN)NC(=O)[C@H](CO)NC(=O)[C@H](Cc1ccc(O)cc1)NC(=O)[C@H](CC(=O)O)NC(=O)[C@H](CO)NC(=O)[C@@H](NC(=O)[C@H](Cc1ccccc1)NC(=O)[C@@H](NC(=O)CNC(=O)[C@H](CCC(N)=O)NC(=O)[C@H](CO)NC(=O)[C@@H](N)Cc1c[nH]cn1)[C@@H](C)O)[C@@H](C)O)C(=O)N[C@H]1CCC(=O)NCCCC[C@@H](C(=O)NCC(N)=O)NC(=O)[C@H](C(C)C)NC(=O)[C@H](CC(C)C)NC(=O)[C@H](Cc2c[nH]c3ccccc23)NC1=O [E16 GLP(17-29)-NH2 E24, K28 Lactam] (H-HSQGTFTSDYSKYLDEQAAKEFIEWLVKG-NH2; lactam 24-28; N-terminus assumed)
EC50 (GLP-1 receptor): 0.007 nM
EC50 (glucagon receptor; [1]): 0.16 nM

HSQGTFTSDYSKYLDERRAKDFVQW LMNTa [E16, K20 Gluc-NH2] (HSQGTFTSDYSKYLDERRAKDFVQWLMNT-NH2)
Percent Potency Relative to Native Ligand GLP-1Rec (GLP-1 receptor; Table 5): 41.5%
Percent Potency Relative to Native Ligand GLP-1Rec (GLP-1 receptor; Table 9, E16/lactam analogs): 41.5%
Percent Potency Relative to Native Ligand GRec (glucagon receptor; Table 5): 130.1%
Percent Potency Relative to Native Ligand GRec (glucagon receptor; Table 9, E16/lactam analogs): 130.1%

HX2QGT FTSDY SKYLD EQAAK EFIC*W LMNTa [Chimera AIB2, Cys24 (SEQ ID NO: 486)]
Parent w/PEG % Potency Relative to Native GLP-1R (GLP-1 receptor; Table 12, pegylated peptide): 82.5%
Parent w/o PEG % Potency Relative to Native GLP-1R (GLP-1 receptor; Table 12, peptide without PEG): 160.6%
Parent w/PEG % Potency Relative to Native GR (glucagon receptor): 2.6%
Parent w/o PEG % Potency Relative to Native GR (glucagon receptor): 15.4%

HSQGTFTSDYSKYLDEQAAKEFIAWLMNT-NH2 [E16 GLP(17-26)Glu(27-29)-NH2, HSQGTFTSDYSKYLDEQAAKEFIAW LMNTa]
EC50 (glucagon receptor; [1]): 0.076 nM

HX2QGT FTSDYSKYLDEQAAKEFIAWLMNGGPSSGAPPPSC*a (H[Aib]QGTFTSDYSKYLDEQAAKEFIAWLMNGGPSSGAPPPSC-NH2; also: optional PEG on Cys40) [X2=AIB; C* is Cys or Cys attached to PEG]
Parent w/PEG % Potency Relative to Native GLP-1R (GLP-1 receptor; Table 12, pegylated peptide): 68.8%
Parent w/o PEG % Potency Relative to Native GLP-1R (GLP-1 receptor; Table 12, peptide without PEG): 359.1%
Parent w/PEG % Potency Relative to Native GR (glucagon receptor): 0.3%
Parent w/o PEG % Potency Relative to Native GR (glucagon receptor): 2.2%

HSQGTFTSDYSKYLDSRRAQDFVQWLVKGGPSSGAPPPS-NH2 [-VKGG^30 PSSGAPPPS (SEQ ID NO: 524)]
EC50 (GLP-1 receptor): 0.21 nM
GLP 1 Receptor Relative Potency (%) (GLP-1 receptor): 12%
EC50 (glucagon receptor): 1.16 nM
Glucagon Receptor Relative Potency (%) (glucagon receptor): 7%

HX2QGT FTSDY SKYLD ERAAK DFVC*W LMNTa (H[Aib]QGTFTSDYSKYLDERAAKDFVC(PEG)WLMNT-NH2; reading uncertain) [E16, K20AIB2, A18 Cys24 (SEQ ID NO: 492), X2=AIB; C* is Cys attached to PEG in the tested form]
Parent w/PEG % Potency Relative to Native GLP-1R (GLP-1 receptor; Table 12, pegylated peptide): 73.5%
Parent w/PEG % Potency Relative to Native GR (glucagon receptor): 1.1%

HX2QGT FTSDYSKYLDEQAAKEFIAWLMNC*a (H[Aib]QGTFTSDYSKYLDEQAAKEFIAWLMNC-NH2; also: optional PEG on Cys29) [Chimera AIB2, Cys29 (SEQ ID NO: 487), X2=AIB; C* is Cys or Cys attached to PEG]
Parent w/PEG % Potency Relative to Native GLP-1R (GLP-1 receptor; Table 12, pegylated peptide): 54.3%
Parent w/o PEG % Potency Relative to Native GLP-1R (GLP-1 receptor; Table 12, peptide without PEG): 124.6%
Parent w/PEG % Potency Relative to Native GR (glucagon receptor): 5.6%
Parent w/o PEG % Potency Relative to Native GR (glucagon receptor): 20.1%

X1SQGT FTSDYSKYLD EQAAK EFIAW LMNC*a ([Isobutyryl(2-imidazol-4-yl)]SQGTFTSDYSKYLDEQAAKEFIAWLMNC(PEG)-NH2; reading uncertain) [Chimera DMIA1, Cys29 (SEQ ID NO: 520), X1=DMIA; C* is Cys attached to PEG in the tested form]
Parent w/PEG % Potency Relative to Native GLP-1R (GLP-1 receptor; Table 12, pegylated peptide): 27.3%
Parent w/PEG % Potency Relative to Native GR (glucagon receptor): 5.3%

CSCC[C@H](NC(=O)[C@H](CC(C)C)NC(=O)[C@H](Cc1c[nH]c2ccccc12)NC(=O)[C@H](CCC(N)=O)NC(=O)[C@@H](NC(=O)[C@H](Cc1ccccc1)NC(=O)[C@H](CC(=O)O)NC(=O)[C@H](CCC(N)=O)NC(=O)[C@H](C)NC(=O)[C@H](CCCNC(=N)N)NC(=O)[C@H](CCCNC(=N)N)NC(=O)[C@H](CO)NC(=O)[C@H](CC(=O)O)NC(=O)[C@H](CC(C)C)NC(=O)[C@H](Cc1ccc(O)cc1)NC(=O)[C@H](CCCCN)NC(=O)[C@H](CO)NC(=O)[C@H](Cc1ccc(O)cc1)NC(=O)[C@H](CC(=O)O)NC(=O)[C@H](CO)NC(=O)[C@@H](NC(=O)[C@H](Cc1ccccc1)NC(=O)[C@@H](NC(=O)CNC(=O)[C@H](CCC(N)=O)NC(=O)[C@H](CO)NC(=O)[C@@H](N)Cc1c[nH]cn1)[C@@H](C)O)[C@@H](C)O)C(C)C)C(=O)N[C@@H](CCCCN)C(=O)NCC(=O)NCC(=O)N1CCC[C@H]1C(=O)N[C@@H](CO)C(=O)N[C@@H](CO)C(=O)NCC(=O)N[C@@H](C)C(=O)N1CCC[C@H]1C(=O)N1CCC[C@H]1C(=O)N1CCC[C@H]1C(=O)N[C@@H](CO)C(N)=O [-MKGG^30 PSSGAPPPS (SEQ ID NO: 523)]
EC50 (GLP-1 receptor): 0.8 nM
GLP 1 Receptor Relative Potency (%) (GLP-1 receptor): 3%
EC50 (glucagon receptor): 0.61 nM
Glucagon Receptor Relative Potency (%) (glucagon receptor): 14%

HX2QGT FTSDY SKYLD EQAAK EFIC*W LMNTa
Parent w/PEG % Potency Relative to Native GLP-1R (GLP-1 receptor): 38.0%
Parent w/o PEG % Potency Relative to Native GLP-1R (GLP-1 receptor): 230.4%
Parent w/PEG % Potency Relative to Native GR (glucagon receptor): 9.2%
Parent w/o PEG % Potency Relative to Native GR (glucagon receptor): 114.2%

Glucagon Cys^24 maleimido,PEG-3.4K-dimer [Glucagon C24 Dimer]
EC50 (glucagon receptor; [2]): 0.1 ± 0.05 nM

HSQGTFTSDYSKYLDERRAKDFVQW LMNTa [E16K20 Gluc-NH2 Lac] (HSQGTFTSDYSKYLDERRAKDFVQWLMNT-NH2; lactam 16-20; N-terminus assumed; SMILES CSCC[C@H](NC(=O)[C@H](CC(C)C)NC(=O)[C@H](Cc1c[nH]c2ccccc12)NC(=O)[C@H](CCC(N)=O)NC(=O)[C@@H](NC(=O)[C@H](Cc1ccccc1)NC(=O)[C@H](CC(=O)O)NC(=O)[C@@H]1CCCCNC(=O)CC[C@H](NC(=O)[C@H](CC(=O)O)NC(=O)[C@H](CC(C)C)NC(=O)[C@H](Cc2ccc(O)cc2)NC(=O)[C@H](CCCCN)NC(=O)[C@H](CO)NC(=O)[C@H](Cc2ccc(O)cc2)NC(=O)[C@H](CC(=O)O)NC(=O)[C@H](CO)NC(=O)[C@@H](NC(=O)[C@H](Cc2ccccc2)NC(=O)[C@@H](NC(=O)CNC(=O)[C@H](CCC(N)=O)NC(=O)[C@H](CO)NC(=O)[C@@H](N)Cc2c[nH]cn2)[C@@H](C)O)[C@@H](C)O)C(=O)N[C@@H](CCCNC(=N)N)C(=O)N[C@@H](CCCNC(=N)N)C(=O)N[C@@H](C)C(=O)N1)C(C)C)C(=O)N[C@@H](CC(N)=O)C(=O)N[C@H](C(N)=O)[C@@H](C)O)
Percent Potency Relative to Native Ligand GLP-1Rec (GLP-1 receptor; Table 9, E16/lactam analogs): 63.0%
Percent Potency Relative to Native Ligand GRec (glucagon receptor; Table 9, E16/lactam analogs): 180.8%

Oxyntomodulin C24 PEG 20K: oxyntomodulin Cys24 pegylated with 20K PEG
EC50 (glucagon receptor; read-out: cAMP Induction Glucagon Receptor EC50, Table 2, analogs with C-terminus extension): 0.97 ± 0.04 nM

CSCC[C@H](NC(=O)[C@H](CC(C)C)NC(=O)[C@H](Cc1c[nH]c2ccccc12)NC(=O)[C@H](CCC(N)=O)NC(=O)[C@@H](NC(=O)[C@H](Cc1ccccc1)NC(=O)[C@H](CC(=O)O)NC(=O)[C@H](CCC(N)=O)NC(=O)[C@H](C)NC(=O)[C@H](CCCNC(=N)N)NC(=O)[C@H](CCCNC(=N)N)NC(=O)[C@H](CO)NC(=O)[C@H](CC(=O)O)NC(=O)[C@H](CC(C)C)NC(=O)[C@H](Cc1ccc(O)cc1)NC(=O)[C@H](CCCCN)NC(=O)[C@H](CO)NC(=O)[C@H](Cc1ccc(O)cc1)NC(=O)[C@H](CC(=O)O)NC(=O)[C@H](CO)NC(=O)[C@@H](NC(=O)[C@H](Cc1ccccc1)NC(=O)[C@@H](NC(=O)CNC(=O)[C@H](CCC(N)=O)NC(=O)[C@H](CO)NC(=O)[C@@H](N)Cc1c[nH]cn1)[C@@H](C)O)[C@@H](C)O)C(C)C)C(=O)N[C@@H](CC(N)=O)C(=O)NCC(=O)NCC(=O)N1CCC[C@H]1C(=O)N[C@@H](CO)C(=O)N[C@@H](CO)C(=O)NCC(=O)N[C@@H](C)C(=O)N1CCC[C@H]1C(=O)N1CCC[C@H]1C(=O)N1CCC[C@H]1C(=O)N[C@@H](CO)C(N)=O [-MNGG^30 PSSGAPPPS (SEQ ID NO: 522)]
EC50 (GLP-1 receptor): 0.31 nM
GLP 1 Receptor Relative Potency (%) (GLP-1 receptor): 8%

Glucagon Cys^29 Mal-PEG-5K [Glucagon C29 PEG 5K]
EC50 (glucagon receptor; [2]): 0.96 ± 0.07 nM
